{"source": "paper PMC7797366", "binders": {"B1": {"name": "M100 20-mer (SAXS) (dsDNA)", "DNA 1": "CCGCATTAGCCAAATTACGC", "DNA 2": "GCGTAATTTGGCTAATGCGG"}, "B2": {"name": "ISL1GA (dsDNA)", "DNA 1": "ACCGCGTAATATCTG", "DNA 2": "CAGATATTACGCGGT"}, "B3": {"name": "M100 (EMSA) (dsDNA)", "DNA 1": "CGGCCATTAGCCAAATTACGGC", "DNA 2": "GCCGTAATTTGGCTAATGGCCG"}}, "key": {"[1]": {"biological_target": "T1, 2HD (Mus musculus, UniProt P61372;P50481)", "T1 chain": "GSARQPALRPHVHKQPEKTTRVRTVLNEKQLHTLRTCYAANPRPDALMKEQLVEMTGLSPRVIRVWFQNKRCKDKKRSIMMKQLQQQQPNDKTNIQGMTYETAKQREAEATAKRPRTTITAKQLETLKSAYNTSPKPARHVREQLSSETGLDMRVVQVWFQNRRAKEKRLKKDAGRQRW", "assay": "SAXS"}, "[2]": {"biological_target": "T2, 2HDLL (Mus musculus, UniProt P61372;P50481)", "T2 chain": "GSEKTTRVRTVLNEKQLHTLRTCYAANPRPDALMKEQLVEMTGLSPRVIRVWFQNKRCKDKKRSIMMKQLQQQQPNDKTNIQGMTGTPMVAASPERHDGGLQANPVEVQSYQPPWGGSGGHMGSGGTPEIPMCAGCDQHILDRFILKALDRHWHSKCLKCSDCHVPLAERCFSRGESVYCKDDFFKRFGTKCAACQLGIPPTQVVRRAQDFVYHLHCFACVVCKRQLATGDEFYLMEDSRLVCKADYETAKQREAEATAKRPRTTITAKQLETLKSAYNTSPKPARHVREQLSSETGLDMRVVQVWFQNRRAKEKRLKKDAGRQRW", "assay": "SEC-MALLS, SAXS"}, "[3]": {"biological_target": "T3, LLHD3 (Mus musculus, UniProt P61372;P50481)", "T3 chain": "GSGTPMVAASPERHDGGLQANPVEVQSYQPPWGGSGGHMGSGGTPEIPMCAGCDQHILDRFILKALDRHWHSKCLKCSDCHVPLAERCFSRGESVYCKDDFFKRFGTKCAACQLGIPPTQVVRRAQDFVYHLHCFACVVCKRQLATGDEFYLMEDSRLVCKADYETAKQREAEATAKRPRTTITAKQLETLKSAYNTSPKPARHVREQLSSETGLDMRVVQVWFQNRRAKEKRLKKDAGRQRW", "assay": "EMSA"}, "[4]": {"biological_target": "T3, LLHD3", "assay": "EMSA"}}, "data": [{"binder": "B1", "values": [{"measurement": "binding result", "setting": "[1]", "result": "binds"}, {"measurement": "binding result", "setting": "[2]", "result": "binds"}]}, {"binder": "B2", "values": [{"measurement": "binding result", "setting": "[3]", "result": "no binding"}]}, {"binder": "B3", "values": [{"measurement": "Kd", "setting": "[4]", "result": 1000, "unit": "nM"}]}]}
